# Experimental data published in patent US20230293638A1 (Eli Lilly, published 2023).
# Changes are numbered by the printed parent chain. Numbered stars: 1 amine (or outer) side, 2 acyl side, 3 side chain; on linkers, the order of the positions; unused ones are H or OH. Square brackets hold non-standard residues; d marks the D form. Side chains are listed from the residue outwards. Ends that are not written are not given here. * marks the point of attachment. C20 diacid = O=C(O)CCCCCCCCCCCCCCCCCCC(=O)*; αMePhe(2-F) = C[C@](N)(Cc1ccccc1F)C(=O)O; γGlu = O=C(O)[C@H](CCC(=O)[*:2])N[*:1]; αMeF = C[C@](N)(Cc1ccccc1)C(=O)O; αMeL = CC(C)C[C@](C)(N)C(=O)O; cTA = not defined here; AEEA = NCCOCCOCC(=O)O; Aib = CC(C)(N)C(=O)O
# B1: Peptide 115 (peptide)
# peptide: YXEGTXTSDYSIXLDEKAQXAFIEYLIEGGPSSGAPPPS
# modifications: Aib2; αMeF6; αMeL13; K17((2-[2-(2-Amino-ethoxy)-ethoxy]-acetyl)2-(γGlu)-CO-(CH2)18-CO2H); Aib20; C-terminal NH2
# B2: Peptide 143 (peptide)
# peptide: B1 peptide with E16K, A21X
# modifications: Aib2; αMeF6; αMeL13; K17((2-[2-(2-Amino-ethoxy)-ethoxy]-acetyl)2-(γGlu)-CO-(CH2)18-CO2H); Aib20; Aib21; C-terminal NH2
# B3: Peptide 140 (peptide)
# peptide: B1 peptide with E16K, A21D
# modifications: Aib2; αMeF6; αMeL13; K17((2-[2-(2-Amino-ethoxy)-ethoxy]-acetyl)2-(γGlu)-CO-(CH2)18-CO2H); Aib20; C-terminal NH2
# B4: Peptide 144 (peptide)
# peptide: B1 peptide with E16K, X20H, A21X
# modifications: Aib2; αMeF6; αMeL13; K17((2-[2-(2-Amino-ethoxy)-ethoxy]-acetyl)2-(γGlu)-CO-(CH2)18-CO2H); Aib21; C-terminal NH2
# B5: Peptide 157 (peptide)
# peptide: B1 peptide with Y10X, A21E
# modifications: Aib2; αMeF(2F)6; 3Pal10; αMeL13; K17((2-[2-(2-Amino-ethoxy)-ethoxy]-acetyl)2-(γGlu)-CO-(CH2)18-CO2H); Aib20; C-terminal NH2
# B6: Peptide 168 (peptide)
# peptide: B1 peptide with Y10H, A21T, E24X
# modifications: Aib2; αMeF(2F)6; αMeL13; K17((2-[2-(2-Amino-ethoxy)-ethoxy]-acetyl)2-(γGlu)-CO-(CH2)18-CO2H); Aib20; D-Glu24; C-terminal NH2
# B7: Peptide 139 (peptide)
# peptide: B1 peptide with E16K, A21T
# modifications: Aib2; αMeF6; αMeL13; K17((2-[2-(2-Amino-ethoxy)-ethoxy]-acetyl)2-(γGlu)-CO-(CH2)18-CO2H); Aib20; C-terminal NH2
# B8: Peptide 149 (peptide)
# peptide: B1 peptide with A21E, E24V
# modifications: Aib2; αMeF(2F)6; αMeL13; K17((2-[2-(2-Amino-ethoxy)-ethoxy]-acetyl)2-(γGlu)-CO-(CH2)18-CO2H); Aib20; C-terminal NH2
# B9: Peptide 147 (peptide)
# peptide: B1 peptide with A21E, E24X
# modifications: Aib2; αMeF(2F)6; αMeL13; K17((2-[2-(2-Amino-ethoxy)-ethoxy]-acetyl)2-(γGlu)-CO-(CH2)18-CO2H); Aib20; Aad24; C-terminal NH2
# B10: Peptide 155 (peptide)
# peptide: B1 peptide with Y10X, A21E
# modifications: Aib2; αMeF(2F)6; cTA10; αMeL13; K17((2-[2-(2-Amino-ethoxy)-ethoxy]-acetyl)2-(γGlu)-CO-(CH2)18-CO2H); Aib20; C-terminal NH2
# B11: Peptide 137 (peptide)
# peptide: B1 peptide with E16K, A21X
# modifications: Aib2; αMeF6; αMeL13; K17((2-[2-(2-Amino-ethoxy)-ethoxy]-acetyl)2-(γGlu)-CO-(CH2)18-CO2H); Aib20; Aad21; C-terminal NH2
# B12: Peptide 126 (peptide)
# peptide: B1 peptide with E16K, G29A
# modifications: Aib2; αMeF6; αMeL13; K17((2-[2-(2-Amino-ethoxy)-ethoxy]-acetyl)2-(γGlu)-CO-(CH2)18-CO2H); Aib20; C-terminal NH2
# B13: Peptide 125 (peptide)
# peptide: B1 peptide with E16K
# modifications: Aib2; αMeF6; αMeL13; K17((2-[2-(2-Amino-ethoxy)-ethoxy]-acetyl)2-(γGlu)2-CO-(CH2)18-CO2H); Aib20; C-terminal NH2
# B14: Peptide 152 (peptide)
# peptide: B1 peptide with A21E, E24X
# modifications: Aib2; αMeF(2F)6; αMeL13; K17((2-[2-(2-Amino-ethoxy)-ethoxy]-acetyl)2-(γGlu)-CO-(CH2)18-CO2H); Aib20; Aib24; C-terminal NH2
# B15: Peptide 148 (peptide)
# peptide: B1 peptide with A21E, E24A
# modifications: Aib2; αMeF(2F)6; αMeL13; K17((2-[2-(2-Amino-ethoxy)-ethoxy]-acetyl)2-(γGlu)-CO-(CH2)18-CO2H); Aib20; C-terminal NH2
# B16: Peptide 153 (peptide)
# peptide: B1 peptide with A21E, E24H
# modifications: Aib2; αMeF(2F)6; αMeL13; K17((2-[2-(2-Amino-ethoxy)-ethoxy]-acetyl)2-(γGlu)-CO-(CH2)18-CO2H); Aib20; C-terminal NH2
# B17: Peptide 129 (peptide)
# peptide: B1 peptide with Y10L, X13L, E16K
# modifications: Aib2; αMeF6; K17((2-[2-(2-Amino-ethoxy)-ethoxy]-acetyl)2-(γGlu)-CO-(CH2)18-CO2H); Aib20; C-terminal NH2
# B18: Peptide 118 (peptide)
# peptide: B1 peptide with A21E
# modifications: Aib2; αMeF(2F)6; αMeL13; K17((2-[2-(2-Amino-ethoxy)-ethoxy]-acetyl)2-(γGlu)-CO-(CH2)18-CO2H); Aib20; C-terminal NH2
# B19: Peptide 20 (peptide)
# peptide: B1 peptide with X6F, E16K
# modifications: Aib2; αMeL13; K17((2-[2-(2-Amino-ethoxy)-ethoxy]-acetyl)2-(γGlu)-CO-(CH2)18-CO2H); Aib20; C-terminal NH2
# B20: Peptide 128 (peptide)
# peptide: B1 peptide with Y10H, X13L, E16K
# modifications: Aib2; αMeF6; K17((2-[2-(2-Amino-ethoxy)-ethoxy]-acetyl)2-(γGlu)-CO-(CH2)18-CO2H); Aib20; C-terminal NH2
# B21: Peptide 150 (peptide)
# peptide: B1 peptide with A21E, E24S
# modifications: Aib2; αMeF(2F)6; αMeL13; K17((2-[2-(2-Amino-ethoxy)-ethoxy]-acetyl)2-(γGlu)-CO-(CH2)18-CO2H); Aib20; C-terminal NH2
# B22: Peptide 171 (peptide)
# peptide: B1 peptide with Y10H, E16X, A21T, E24X
# modifications: Aib2; αMeF(2F)6; αMeL13; Orn16; K17((2-[2-(2-Amino-ethoxy)-ethoxy]-acetyl)2-(γGlu)-CO-(CH2)18-CO2H); Aib20; D-Glu24; C-terminal NH2
# B23: Peptide 151 (peptide)
# peptide: B1 peptide with A21E, E24P
# modifications: Aib2; αMeF(2F)6; αMeL13; K17((2-[2-(2-Amino-ethoxy)-ethoxy]-acetyl)2-(γGlu)-CO-(CH2)18-CO2H); Aib20; C-terminal NH2
# B24: Peptide 169 (peptide)
# peptide: B1 peptide with Y10H, A21T, E24X
# modifications: Aib2; αMeF(2F)6; αMeL13; K17((2-[2-(2-Amino-ethoxy)-ethoxy]-acetyl)2-(γGlu)-CO-(CH2)16-CO2H); Aib20; D-Glu24; C-terminal NH2
# B25: Peptide 123 (peptide)
# peptide: YXEGTXTSDYSIXLDKKAQXEFIEYLIEGGPSSG
# modifications: Aib2; αMeF6; αMeL13; K17((2-[2-(2-Amino-ethoxy)-ethoxy]-acetyl)2-(γGlu)-CO-(CH2)18-CO2H); Aib20; C-terminal NH2
# B26: Peptide 120 (peptide)
# peptide: Y[Aib][cTA]GT[αMeF]TSDYSI[αMeL]LDEK([AEEA-AEEA-γGlu-C20 diacid])AQ[Aib]AFIEYLIEGGPSSGAPPPS-NH2
# modifications: reading uncertain
# B27: Peptide 9 (peptide)
# peptide: Y[Aib]EGTFTSDYSILLDSK([AEEA-AEEA-γGlu-C20 diacid])AQ[Aib]AFIEYLIEGGPSSGAPPPS-NH2
# modifications: N-terminus assumed
# SMILES: CC[C@H](C)[C@H](NC(=O)[C@H](CC(C)C)NC(=O)[C@H](Cc1ccc(O)cc1)NC(=O)[C@H](CCC(=O)O)NC(=O)[C@@H](NC(=O)[C@H](Cc1ccccc1)NC(=O)[C@H](C)NC(=O)C(C)(C)NC(=O)[C@H](CCC(N)=O)NC(=O)[C@H](C)NC(=O)[C@H](CCCCNC(=O)COCCOCCNC(=O)COCCOCCNC(=O)CC[C@H](NC(=O)CCCCCCCCCCCCCCCCCCC(=O)O)C(=O)O)NC(=O)[C@H](CO)NC(=O)[C@H](CC(=O)O)NC(=O)[C@H](CC(C)C)NC(=O)[C@H](CC(C)C)NC(=O)[C@@H](NC(=O)[C@H](CO)NC(=O)[C@H](Cc1ccc(O)cc1)NC(=O)[C@H](CC(=O)O)NC(=O)[C@H](CO)NC(=O)[C@@H](NC(=O)[C@H](Cc1ccccc1)NC(=O)[C@@H](NC(=O)CNC(=O)[C@H](CCC(=O)O)NC(=O)C(C)(C)NC(=O)[C@@H](N)Cc1ccc(O)cc1)[C@@H](C)O)[C@@H](C)O)[C@@H](C)CC)[C@@H](C)CC)C(=O)N[C@@H](CCC(=O)O)C(=O)NCC(=O)NCC(=O)N1CCC[C@H]1C(=O)N[C@@H](CO)C(=O)N[C@@H](CO)C(=O)NCC(=O)N[C@@H](C)C(=O)N1CCC[C@H]1C(=O)N1CCC[C@H]1C(=O)N1CCC[C@H]1C(=O)N[C@@H](CO)C(N)=O
# B28: Peptide 154 (peptide)
# peptide: Y[Aib]EGT[αMePhe(2-F)]TSDHSI[αMeL]LDEK([AEEA-AEEA-γGlu-C20 diacid])AQ[Aib]EFIEYLIEGGPSSGAPPPS-NH2
# modifications: N-terminus assumed
# SMILES: CC[C@H](C)[C@H](NC(=O)[C@H](CC(C)C)NC(=O)[C@H](Cc1ccc(O)cc1)NC(=O)[C@H](CCC(=O)O)NC(=O)[C@@H](NC(=O)[C@H](Cc1ccccc1)NC(=O)[C@H](CCC(=O)O)NC(=O)C(C)(C)NC(=O)[C@H](CCC(N)=O)NC(=O)[C@H](C)NC(=O)[C@H](CCCCNC(=O)COCCOCCNC(=O)COCCOCCNC(=O)CC[C@H](NC(=O)CCCCCCCCCCCCCCCCCCC(=O)O)C(=O)O)NC(=O)[C@H](CCC(=O)O)NC(=O)[C@H](CC(=O)O)NC(=O)[C@H](CC(C)C)NC(=O)[C@](C)(CC(C)C)NC(=O)[C@@H](NC(=O)[C@H](CO)NC(=O)[C@H](Cc1c[nH]cn1)NC(=O)[C@H](CC(=O)O)NC(=O)[C@H](CO)NC(=O)[C@@H](NC(=O)[C@](C)(Cc1ccccc1F)NC(=O)[C@@H](NC(=O)CNC(=O)[C@H](CCC(=O)O)NC(=O)C(C)(C)NC(=O)[C@@H](N)Cc1ccc(O)cc1)[C@@H](C)O)[C@@H](C)O)[C@@H](C)CC)[C@@H](C)CC)C(=O)N[C@@H](CCC(=O)O)C(=O)NCC(=O)NCC(=O)N1CCC[C@H]1C(=O)N[C@@H](CO)C(=O)N[C@@H](CO)C(=O)NCC(=O)N[C@@H](C)C(=O)N1CCC[C@H]1C(=O)N1CCC[C@H]1C(=O)N1CCC[C@H]1C(=O)N[C@@H](CO)C(N)=O
# B29: Peptide 167 (peptide)
# peptide: Y[Aib]EGT[αMePhe(2-F)]TSDHSI[αMeL]LDEK([AEEA-AEEA-γGlu-C20 diacid])AQ[Aib]TFI[dE]YLIEGGPSSG-NH2
# modifications: N-terminus assumed
# SMILES: CC[C@H](C)[C@H](NC(=O)[C@H](CC(C)C)NC(=O)[C@H](Cc1ccc(O)cc1)NC(=O)[C@@H](CCC(=O)O)NC(=O)[C@@H](NC(=O)[C@H](Cc1ccccc1)NC(=O)[C@@H](NC(=O)C(C)(C)NC(=O)[C@H](CCC(N)=O)NC(=O)[C@H](C)NC(=O)[C@H](CCCCNC(=O)COCCOCCNC(=O)COCCOCCNC(=O)CC[C@H](NC(=O)CCCCCCCCCCCCCCCCCCC(=O)O)C(=O)O)NC(=O)[C@H](CCC(=O)O)NC(=O)[C@H](CC(=O)O)NC(=O)[C@H](CC(C)C)NC(=O)[C@](C)(CC(C)C)NC(=O)[C@@H](NC(=O)[C@H](CO)NC(=O)[C@H](Cc1c[nH]cn1)NC(=O)[C@H](CC(=O)O)NC(=O)[C@H](CO)NC(=O)[C@@H](NC(=O)[C@](C)(Cc1ccccc1F)NC(=O)[C@@H](NC(=O)CNC(=O)[C@H](CCC(=O)O)NC(=O)C(C)(C)NC(=O)[C@@H](N)Cc1ccc(O)cc1)[C@@H](C)O)[C@@H](C)O)[C@@H](C)CC)[C@@H](C)O)[C@@H](C)CC)C(=O)N[C@@H](CCC(=O)O)C(=O)NCC(=O)NCC(=O)N1CCC[C@H]1C(=O)N[C@@H](CO)C(=O)N[C@@H](CO)C(=O)NCC(N)=O
# Biological target: human GLP-1 receptor (human, UniProt P43220 24-463)
# Test: cell-based or functional assay
row,Binder,hGLPIR cAMP EC50 ratio
1,B1,0.743
2,B2,0.714
3,B3,1.16
4,B4,0.851
5,B5,1.25
6,B6,0.0323
7,B7,1.13
8,B8,0.484
9,B9,1.13
10,B10,0.0978
11,B11,1.25
12,B12,0.869
13,B13,1.31
14,B14,0.484
15,B15,0.859
16,B16,0.501
17,B17,0.543
18,B18,1.13
19,B19,0.577
20,B20,0.7
21,B21,0.79
22,B22,0.0609
23,B23,0.0278
24,B24,0.0136
25,B25,1.58
26,B26,0.319
27,B27,0.314
28,B28,1.23
29,B29,0.0487
